The target of assay [1] is T1, human VISTA (human, UniProt Q9H7M9 33-194, limits assumed).
T1 construct: also called hVISTA
Description: flow cytometry on CHO-VISTA cells, pH 6.0, detection Anti-Fab 647 (legend: Fab on CHO-VISTA cells). Background: In flow cytometry, cells or beads pass a laser one at a time.

In assay [2] the target is T1, human VISTA. The experiment in a line: flow cytometry on CHO-VISTA cells, pH 7.4, detection Anti-Fab 647 (legend: Fab on CHO-VISTA cells).
Assay [3] addresses T2, biotinylated hVISTA-Fc (human, biotinylated (site not stated)).
T2 construct: also called Human VISTA-Fc
T2 chain: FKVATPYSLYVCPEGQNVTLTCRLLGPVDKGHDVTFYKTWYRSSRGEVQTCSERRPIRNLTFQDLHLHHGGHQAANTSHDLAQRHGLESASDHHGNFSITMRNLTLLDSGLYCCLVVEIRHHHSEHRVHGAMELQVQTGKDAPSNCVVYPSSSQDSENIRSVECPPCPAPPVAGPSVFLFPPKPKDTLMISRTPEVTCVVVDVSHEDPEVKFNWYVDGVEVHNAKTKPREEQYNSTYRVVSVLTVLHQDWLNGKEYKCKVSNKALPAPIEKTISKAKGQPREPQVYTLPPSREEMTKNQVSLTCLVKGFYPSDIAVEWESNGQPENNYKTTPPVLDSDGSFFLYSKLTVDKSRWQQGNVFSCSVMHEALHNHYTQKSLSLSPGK
Description: competition ELISA at pH 6.0; SNS-101 dilutions pre-incubated with biotinylated hVISTA-Fc, then added to wells coated with LRIG-1 (blocked partner). (In an ELISA, binding on a coated surface is turned into a signal by an enzyme label.)

The target in assay [4] is T2, biotinylated hVISTA-Fc. The experiment in a line: competition ELISA at pH 6.0; SNS-101 dilutions pre-incubated with biotinylated hVISTA-Fc, then added to wells coated with PSGL-1 (blocked partner).
For assay [5], the target named is T2, biotinylated hVISTA-Fc. Description: competition ELISA at pH 6.0; SNS-101 dilutions pre-incubated with biotinylated hVISTA-Fc, then added to wells coated with VSIG-3 (blocked partner).
For assay [6], the target named is T2, biotinylated hVISTA-Fc. The experiment in a line: competition ELISA at pH 6.0; SNS-101 dilutions pre-incubated with biotinylated hVISTA-Fc, then added to wells coated with VSIG-8 (blocked partner).
Assay [7] has as its target T2, biotinylated hVISTA-Fc. The experiment in a line: competition ELISA at pH 6.0; SNS-101 dilutions pre-incubated with biotinylated hVISTA-Fc, then added to wells coated with Syndecan-2 (blocked partner).

These results are taken from patent US20230272082A1 (SENSEI BIOTHERAPEUTICS, published 2023).

As a reminder, the IC50 is the concentration at which inhibition is half-maximal. A high value points to lower potency.

B1: antibody 55873 (mab#2) (antibody, V domains shown)
VH: EVQLVESGGGLVQPGGSLRLSCAASGFTFSSYSMNWVRQAPGKGLEWVSYISSSSSTIYYADSVKGRFTISRDNAKNSLYLQMNSLRAEDTAVYYCAREAGGVVGRVDFQHWGQGTLVTVSS
VL: DIQMTQSPSSLSASVGDRVTITCQASQDISNYLNWYQQKPGKAPKLLIYDASNLETGVPSRFSGSGSGTDFTFTISSLQPEDIATYYCQQADFLPPWTFGGGTKVEIK
notes: Fully human parental antibody; also called Anti-VISTA mAb #2
On to B1, for which the “FOB (fold over background)” value in the assay with human VISTA [1] was 29.4; with human VISTA [2], 34.8.

B2: SNS-101 (antibody, human IgG1, V domains shown)
VH: EVQLVESGGGLVQPGGSLRLSCAASGFTFDDYSMNWVRQAPGKGLEWVSYISSDADTIYYADSVKGRFTISRDNAKNSLYLQMNSLRAEDTAVYYCAREAGGVLGRVDFQHWGQGTLVTVSS
VL: DIQLTQSPSSLSASVGDRVTITCQASQDISNYLNWYQQKPGKAPKLLIYDASNLGTGVPSRFSGSGSGTDFTFTISSLQPEDIATYYCQQADFVPPWTFGGGTKVEIK
notes: Described as a fully human IgG1; also called antibody 67375
B2: the IC50 with biotinylated hVISTA-Fc [3] was found to be 6 nM; with biotinylated hVISTA-Fc [4], 7 nM; in the assay with biotinylated hVISTA-Fc [5] it was 6 nM; in the assay with biotinylated hVISTA-Fc [6], 6 nM; with biotinylated hVISTA-Fc [7], 6 nM.
